In US5180678A, “Uses of substantially pure interleukin-9 receptor” (Ludwig Institute for Cancer Research, priority 1992, dated 1993):

Experiments:
[1] = system: TS1 cells; assay: Internalization of bound labelled rIL-9 (resistance to acid induced dissociation); assay type: cell-based, mouse; details: TS1 cells saturated at 4° C. with 3.3×10^-10 M labelled rIL-9, then 37° C.; after about one hour; acid pH 3.0 (FIG. 5)
Protocol: It is known that when cytokines are mixed with their receptors at 37° C., they bind thereto when incubated and this is generally followed by internalization of the cytokine. This is determined via testing for increased resistance to acid induced dissociation of bound radiolabel.
To test this for the labeled rIL-9, 7×10^6 TS1 cell/ml were incubated at 4° C. in binding medium as described supra, but lacking Na3 N, with either 3.3×10^-10 M labelled rIL-9, or this concentration of the labelled cytokine plus a 100 fold excess of unlabeled rIL-9. This saturates the cells. After three hours of incubation, the cells were washed with cold binding medium to remove unbound ligand, and the cells were transferred to medium lacking rIL-9, at a temperature of 37° C. At various time intervals, the cells were incubated for two minutes with either of 360 ul of binding medium, or with citrate buffer (50 mM, pH 2.5). Contact with citrate buffer, in effect, exposed the cells to a pH of 3.0.

[2] = molecular target: T1, IL-9R (Mus musculus, UniProt Q01114); assay: Cellular distribution of IL-9R: specific binding of 125I-labeled IL-9 to cell types; set-up: a number of different cell types were tested for the presence of the IL-9R molecule; endogenous in cells
T1 sequence (Q01114 38-468): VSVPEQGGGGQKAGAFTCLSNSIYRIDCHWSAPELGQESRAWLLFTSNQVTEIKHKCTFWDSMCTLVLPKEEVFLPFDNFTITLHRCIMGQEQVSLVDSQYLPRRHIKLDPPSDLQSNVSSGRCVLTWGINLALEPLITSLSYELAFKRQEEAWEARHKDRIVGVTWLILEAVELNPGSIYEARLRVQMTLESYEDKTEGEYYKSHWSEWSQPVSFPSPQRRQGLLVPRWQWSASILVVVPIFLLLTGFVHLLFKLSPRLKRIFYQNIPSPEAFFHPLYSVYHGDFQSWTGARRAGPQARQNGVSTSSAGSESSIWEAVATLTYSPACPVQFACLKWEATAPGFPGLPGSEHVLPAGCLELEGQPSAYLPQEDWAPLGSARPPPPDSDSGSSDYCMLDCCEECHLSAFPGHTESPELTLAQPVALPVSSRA
Protocol: The molecular nature of the IL-9R was studied via affinity cross linking experiments. In these, 5×10^6 cells (TS1)/ml were incubated for three hours at 4° C. in 140 ul of binding medium, either with 1.3×10^-10 M of labeled rIL-9, or the labeled cytokine mixed with 3.1×10^-8 M of the unlabeled material. After two washes with 1 ml of cold, phosphate buffered saline (PBS) at pH 7.4, cells were resuspended in 2.25 ml of cold PBS (pH 8.4), containing 1 mM MgCl2. Disuccinimidyl suberate, solubilized in dimethylsulfoxide, was added at a final concentration of 10 ug/ml. This cross links the cytokine to the cell. […] After a 30 minute incubation on ice, the reaction was quenched by adding 2.5 ml of cold 10 mM TRIS-HCl (pH 7.4) and 1 mM EDTA. The cells were centrifuged and the resulting pellet was resuspended in 50 ul of cold lysis buffer (Tris-HCl 126 mM, pH 7.5 containing 0.7% Triton-X100, 2 mM phenylmethylsulfonyl fluoride (PMSF)), 10 mM EDTA, 10 mM 2-mercaptoethanol, and, in some cases 0.2 mM pepstatin, 2 mM O-phenanthrolin and 0.1 mM leupeptin were included. […] Following extraction, the detergent mixture was incubated for 30 minutes on ice, with insoluble material being removed by centrifuging for 15 minutes at 10,000 rpm. Supernatant was boiled for 90 seconds in the presence of 3 mg/ml of SDS, and was diluted twice with lysis buffer.
Following the protocols of Example 5, a number of different cell types were tested for the presence of the IL-9R molecule.
±Cells were incubated with ^125 Ilabeled IL9.

[3] = system: T helper clone TUC2.15; assay: IL-9 induced proliferation, thymidine incorporation; assay type: cell-based; details: resting TUC2.15 cells, saturating IL-9, thymidine incorporation day 3
Protocol: (§1) The correlation between IL-9 and proliferation of T4 cell lines in response to IL-9 was studied. Resting T cells were collected from two week cultures, and 2×10^6 cells were stimulated by antigen (KLH, 25 ug/ml) in the presence of 70×10^6 & spleen cells for four days. Blasts were isolated by centrifugation and IL-9 binding was determined following incubation with 7.5×10^-10 M labelled rIL-9. Resting cells which had not been restimulated were treated in parallel. Maximal IL-9 induced proliferation was measured by incubation of resting cells in microliter plates (50,000/well), either with or without saturating concentrations of IL-9. Radioactive thymidine incorporation, which was the manner in which proliferation was determined, was measured on day 3.

[4] = system: T helper clone TUC7.51; assay: as above; assay type: cell-based; details: resting TUC7.51 cells, saturating IL-9, thymidine incorporation day 3
Protocol: as §1

[5] = system: T helper clone TUC7.11; assay: as above; assay type: cell-based; details: resting TUC7.11 cells, saturating IL-9, thymidine incorporation day 3
Protocol: as §1

[6] = system: T helper clone TUC7.33; assay: as above; assay type: cell-based; details: resting TUC7.33 cells, saturating IL-9, thymidine incorporation day 3
Protocol: as §1

IL-9: lymphokine interleukin-9, T-cell derived growth factor; in Tables II and III the 125I-labelled recombinant form is used
internalization of IL-9 [1]: most of the IL-9 was internalized | Specific Binding ([2]; B lymphocytes LPS-blasts, 125I-labeled IL-9 3.2 × 10^-10 M): -- (below detection limit (<10 mol/cell)) | Specific Binding ([2]; B lymphocytes unstimulated, 125I-labeled IL-9 3.2 × 10^-10 M): -- (below detection limit (<10 mol/cell)) | Specific Binding ([2]; B-cell hybridoma 7TD1, 125I-labeled IL-9 3.2 × 10^-10 M): -- (below detection limit (<10 mol/cell)) | Specific Binding ([2]; CTL clone CTL P1:5, 125I-labeled IL-9 1.6 × 10^-10 M): -- (below detection limit (<10 mol/cell)) | Specific Binding ([2]; CTL clone CTL P1:204, 125I-labeled IL-9 6.2 × 10^-11 M): -- (below detection limit (<10 mol/cell)) | Specific Binding ([2]; CTL clone CTL P35:10, 125I-labeled IL-9 3.3 × 10^-10 M): -- (below detection limit (<10 mol/cell)) | Specific Binding ([2]; CTL clone CTL P35:48, 125I-labeled IL-9 1.3 × 10^-10 M): -- (below detection limit (<10 mol/cell)) | Specific Binding ([2]; CTL clone CTL P91:6, 125I-labeled IL-9 1.3 × 10^-10 M): -- (below detection limit (<10 mol/cell)) | Specific Binding ([2]; Carcinoa 3LL (Lewis Lung), 125I-labeled IL-9 6.2 × 10^-11 M): -- (below detection limit (<10 mol/cell)) | Specific Binding ([2]; Factor-dependent T cells ST2K9.4A2, 125I-labeled IL-9 4.1 × 10^-10 M): 1415 mol/cell | Specific Binding ([2]; Factor-dependent T cells TS1, 125I-labeled IL-9 5.6 × 10^-10 M): 2235 mol/cell | Specific Binding ([2]; Factor-dependent T cells TUC.51S1, 125I-labeled IL-9 1.3 × 10^-10 M): 663 mol/cell | Specific Binding ([2]; Fibroblasts A-9, 125I-labeled IL-9 6.2 × 10^-11 M): -- (below detection limit (<10 mol/cell)) | Specific Binding ([2]; Fibrosarcoma MethA, 125I-labeled IL-9 6.2 × 10^-11 M): -- (below detection limit (<10 mol/cell)) | Specific Binding ([2]; KLH-primed lymph nodes (C57B/6 mice), 125I-labeled IL-9 6.2 × 10^-10 M): -- (below detection limit (<10 mol/cell)) | Specific Binding ([2]; Lymphoma LBRM-33-1A5, 125I-labeled IL-9 5.6 × 10^-10 M): 599 mol/cell | Specific Binding ([2]; Macrophages Bone marrow derived, 125I-labeled IL-9 4.1 × 10^-10 M): 195 mol/cell | Specific Binding ([2]; Macrophages P399D1, 125I-labeled IL-9 6.2 × 10^-11 M): 16 mol/cell | Specific Binding ([2]; Macrophages PU5-1,8, 125I-labeled IL-9 1.3 × 10^-10 M): 229 mol/cell | Specific Binding ([2]; Mast cell line L138.C, 125I-labeled IL-9 4.1 × 10^-10 M): 331 mol/cell | Specific Binding ([2]; Mast cell line L138.8A, 125I-labeled IL-9 4.1 × 10^-10 M): 2208 mol/cell | Specific Binding ([2]; Myeloid Cell Line DA-1, 125I-labeled IL-9 3.2 × 10^-10 M): 18 mol/cell | Specific Binding ([2]; Myeloid Cell Line Ea3,15, 125I-labeled IL-9 5.6 × 10^-10 M): -- (below detection limit (<10 mol/cell)) | Specific Binding ([2]; Myeloid Cell Line FDC-P1, 125I-labeled IL-9 5.6 × 10^-10 M): -- (below detection limit (<10 mol/cell)) | Specific Binding ([2]; Myelomonocytic leukemia WEHI.3B, 125I-labeled IL-9 7.5 × 10^-10 M): -- (below detection limit (<10 mol/cell)) | Specific Binding ([2]; Normal lymph nodes, 125I-labeled IL-9 6.2 × 10^-10 M): -- (below detection limit (<10 mol/cell)) | Specific Binding ([2]; Plasmacytoma TEPC1033C, 125I-labeled IL-9 3.2 × 10^-10 M): -- (below detection limit (<10 mol/cell)) | Specific Binding ([2]; Spleen Cells, 125I-labeled IL-9 3.2 × 10^-10 M): -- (below detection limit (<10 mol/cell)) | Specific Binding ([2]; T lymphocytes ConA-blasts, 125I-labeled IL-9 3.2 × 10^-10 M): -- (below detection limit (<10 mol/cell)) | Specific Binding ([2]; T lymphocytes unstimulated, 125I-labeled IL-9 3.2 × 10^-10 M): -- (below detection limit (<10 mol/cell)) | Specific Binding ([2]; T-cell leukemia L1210, 125I-labeled IL-9 5.6 × 10^-10 M): -- (below detection limit (<10 mol/cell)) | Specific Binding ([2]; T-cell leukemia LEB, 125I-labeled IL-9 6.2 × 10^-11 M): -- (below detection limit (<10 mol/cell)) | Specific Binding ([2]; T-cell leukemia TH1, 125I-labeled IL-9 5.6 × 10^-10 M): 273 mol/cell | Specific Binding ([2]; Thymocytes, 125I-labeled IL-9 3.2 × 10^-10 M): -- (below detection limit (<10 mol/cell)) | Specific Binding ([2]; Thymoma BW5147, 125I-labeled IL-9 6.2 × 10^-10 M): 120 mol/cell | Specific Binding ([2]; Thymoma EL4.16, 125I-labeled IL-9 7.5 × 10^-10 M): 263 mol/cell | IL-9 induced proliferation Stimulatin Index [3]: 11.2 | IL-9 induced proliferation Stimulatin Index [4]: 23.8 | IL-9 induced proliferation Stimulatin Index [5]: 1.1 | IL-9 induced proliferation Stimulatin Index [6]: 0.8
